These results are taken from patent US7572600B2, “Enzymatic activities in chemokine-mediated inflammation” (Chemocentryx, Inc., priority 2004, dated 2009).

Where two headings read alike, the source gives them in different places. Where no end group is shown, it is not given here.

The target of one assay is T1, FPRL1 (Homo sapiens, UniProt P25090).
T1 sequence (P25090 1-351): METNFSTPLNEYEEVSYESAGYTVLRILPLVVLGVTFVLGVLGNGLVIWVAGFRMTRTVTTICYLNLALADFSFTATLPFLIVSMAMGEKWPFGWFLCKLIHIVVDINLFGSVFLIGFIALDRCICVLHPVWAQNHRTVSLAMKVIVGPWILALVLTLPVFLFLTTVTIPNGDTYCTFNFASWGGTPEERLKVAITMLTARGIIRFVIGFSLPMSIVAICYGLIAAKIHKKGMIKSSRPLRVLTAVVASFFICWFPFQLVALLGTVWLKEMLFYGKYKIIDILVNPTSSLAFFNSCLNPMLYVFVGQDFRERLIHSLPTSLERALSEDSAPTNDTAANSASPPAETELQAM
In words: Receptor signaling (calcium mobilization) in L1.2-FPRL1 cells. Type of assay: cell-based. Set-up: expressed in transfected cells. The note with it: for Designation and FPRL1 Activity: SHAAGtide and truncated/other variants; for calcium mobilization in the FPRL1 transfectant: L1.2 cells stably expressing human FPRL1, undigested. On the procedure:
(§1) Receptor signaling assay. For individual measurements, cells were loaded for 45 min at room temperature with 2 μM indo-1/AM (Invitrogen, Carlsbad Calif.) in culture medium, then washed with 10 ml PBS and resuspended at 10^6 cells/ml in HBSS containing 0.1% BSA. Cytosolic calcium levels were determined using a Photon Technology International fluorimeter (excitation at 350 nm, ratio of dual emission at 400 and 490 nm). For measuring calcium dose responses, cells were analyzed with a Fluorometric Imaging Plate Reader 384 (FLIPR^384) (Molecular Devices, Sunnyvale, Calif.). Cells were loaded for 1 hr at 37° C. with 5 μM fluo-4 in HBSS with 0.1% BSA, then washed, transferred to black-wall 96-well plates, and subsequently excited at 505 nm with emission recorded at 530 nm with a standard protocol provided by the manufacture. Cells were stimulated with agonists 20 s after the monitoring of fluorescence began. Data were analyzed and plotted in arbitrary units of fluorescence using Prism. To ensure that responses were specific to FPRL1, we utilized a selective small-molecule antagonist of human FPRL1, generated by ChemoCentryx, which was optimized from a high throughput compound library screening approach.
Since FPRL1 has been reported to interact with low affinity and/or potency with a spectrum of potential pathogenic ligands of viral, bacterial and endogenous origin, we performed comparative functional analyses to determine the precise functional domain for the SHAAGtide (FIG. 14). SHAAGtides containing N-terminal and C-terminal truncations and extensions were synthesized, and potencies for receptor signaling in L1.2-FPRL1 cells were tested. […] After removal of the N-terminal amino acid (Met) from SHAAGtide, its potency is reduced approximately 10 fold. Removal of the first two N-terminal amino acids (Met-Leu) totally abolished SHAAGtide's activity on FPRL1. Conversely, removal of the C-terminal three amino residues (AAG) from SHAAGtide had no effect on its activity on FPRL1. Removal of the C-terminal six residues (LSHAAG) reduced the peptide's potency only 3-fold. Many other purported naturally-occurring FPRL1 ligands, including serum amyloid A (SAA), beta-amyloid protein 42, lipoxin A4 and the bacterial tripeptide fMLP were tested.
For orientation: A change in cytosolic calcium serves as a functional read-out for many receptors and channels.

The next assay has as its system human neutrophils. In words: Calcium mobilization in freshly isolated human neutrophils. The assay is classed as cell-based. Here is the method: (§2) Calcium Mobilization Assay. Cells were loaded for 1 hour with 2 μM indo-1/AM dye (Molecular Probes, Eugene, Oreg.) in culture medium, then washed with 10 ml PBS and resuspended at 10^6/ml in HBSS containing 1% FBS. Cytosolic calcium responses were determined using a Photon Technology International (Lawrenceville, N.J.) fluorimeter, with excitation at 350 nm and dual emission at 400 and 490 nm. Alternatively, cells were loaded with 5 μg/ml Fluo-4 AM dye (Molecular Probes, Eugene, Oreg.), then washed and analyzed on a Fluorometric Imaging Plate Reader 384 (FLIPR^384 Molecular Devices, Sunnyvale, Calif.), with 505 nm excitation and 530 nm emission.
as §1

Another assay has as its system THP-1 cells. The experiment in a line: THP-1 chemotaxis assay. The assay is classed as cell-based, human. The note with it: for EC50: THP-1 cells. Here is the method: Chemotaxis assay. L1.2-CCR1 transfectants, THP-1 cells, human monocytes and human neutrophils were collected by centrifugation and resuspended in HBSS containing 0.1% BSA. Chemotaxis assays were performed in 96-well ChemoTx® microplates (Neuroprobe, Rockville, Md.) as follows. Chemokines were added to the lower wells (final volume 29 μL), and 20 μL of cell suspension (5×10^6 cells/mL) was added to the polycarbonate filter (3 μm pore size for neutrophils, 5 μm for other 3 cell types). After incubation at 37° C. in the presence of 5% CO2 for 1 hr (neutrophils), 90 min (monocytes) or 2 h (THP-1 and L1.2-CCR1), cells were removed from the upper surface of the filter by scraping. Cells that migrated into the lower chamber were quantified by using the CyQuant cell proliferation assay kit (Molecular Probes, Eugene, Oreg.) and analyzed with a Tecan (Durham, N.C.) fluorimeter (excitation at 480 nm, emission at 530 nm). Data were analyzed and plotted in arbitrary units of fluorescence using Prism (GraphPad Software, San Diego, Calif.).

The target of assay [1] is T2, CCR1 (Homo sapiens, UniProt P32246).
T2 sequence (P32246 1-355): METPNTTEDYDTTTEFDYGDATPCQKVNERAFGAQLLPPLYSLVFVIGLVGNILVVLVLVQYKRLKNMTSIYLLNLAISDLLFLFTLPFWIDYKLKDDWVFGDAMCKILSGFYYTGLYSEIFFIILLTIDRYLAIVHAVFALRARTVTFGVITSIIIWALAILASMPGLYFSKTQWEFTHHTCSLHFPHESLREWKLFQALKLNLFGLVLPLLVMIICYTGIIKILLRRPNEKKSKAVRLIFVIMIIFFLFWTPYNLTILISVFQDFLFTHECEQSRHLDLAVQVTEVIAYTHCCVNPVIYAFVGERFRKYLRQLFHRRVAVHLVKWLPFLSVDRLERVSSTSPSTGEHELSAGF
In words: Calcium mobilization in murine L1.2 cells expressing human CCR1. Type of assay: cell-based. Set-up: expressed in transfected cells; host or cells: murine L1.2 cells (G-418 selected transfectant). The note with it: L1.2-CCR1 cells. On the procedure: as §2, §1

Assay [2] deals with T2, CCR1. In words: Competition binding with 125I-MIP-1α on human monocytes. Set-up: endogenous in cells; host or cells: human CD14+ monocytes from buffy coats. On the procedure:
Binding assay. Competition binding studies were conducted using monocytes, L1.2-CCR1 or L1.2-FPRL1 cells. Cells were incubated for 3 hr at 4° C. with ^125I-MIP-1α (final concentration ˜0.05 nM) or ^125I-WKYMVm (final concentration ˜0.01 nM) in buffer (25 mM HEPES, 140 mM NaCl, 1 mM CaCl2, 5 mM MgCl2 and 0.2% BSA, adjusted to pH 7.1) in the presence of increasing amounts of unlabeled chemokine. Reactions were aspirated onto PEI-treated GF/B glass filters using a cell harvester (Packard). Filters were washed twice (25 mM HEPES, 500 mM NaCl, 1 mM CaCl2, 5 mM MgCl2, adjusted to pH 7.1). Scintillant (MicroScint-10; 35 μl) was added to the filters and counted in a Packard Topcount scintillation counter. Data were analyzed and plotted using Prism (GraphPad Software, San Diego, Calif.).

The next assay deals with human monocytes. In words: Calcium mobilization in freshly isolated human monocytes. Type of assay: cell-based. The note with it: undigested chemokine or peptide, 100 nM (CCL23β up to 250 nM). On the procedure: as §2, §1
The mark [3] stands for this setting: undigested chemokine or peptide (100 nM).
Setting [4] is: chemokine after digestion with PMN sup #1, read-out: EC50, chemotaxis.
The mark [5] stands for this setting: chemokine after digestion with chymase, read-out: EC50, chemotaxis.
[6] abbreviates: 10 nM input chemokine, after digestion with proteases and fluids.
The mark [7] stands for this setting: 10 nM, undigested or recombinant chemokine.

Regarding RRKIGPQMTLSHAAG [CCXP2], the “Designation and FPRL1 Activity” value with FPRL1 was “Low activity”.
As to “1-42 substrate peptide: synthetic 42-residue peptide consisting of the CCL23β N-terminal (1-24) and SHAAGtide (25-42) domains (MKVSVAALSCLMLVTALGSQARVTKDAETEFMMSKLPLENPV)”, the “calcium mobilization in the FPRL1 transfectant” value with FPRL1 is reported as “unable to induce calcium mobilization”.
In the case of MLWRRKIGPQMT [CCXP5], the “Designation and FPRL1 Activity” value in the assay with FPRL1 is given as “Moderate”.
Same read-out and setting: under WRRKIGPQMTLSHAAG [CCXP7] stands “Low activity”; under LWRRKIGPQMTLSH [CCXP11], “Moderate”; under WRRKIGPQM [CCXP9], “Low activity”.
The same measure, in the same setting: under IGPQMTLSHAAG [CCXP4] stands “Low activity”.
Take MLWRRKIGPQM [CCXP8]: the “Designation and FPRL1 Activity” value with FPRL1 was “Moderate”.
On the same count and under the same terms, the result for MLWRRKIGPQMTLSH [CCXP3] reads “High activity”.
As for MLWRRKIGPQMTLSHAAY [CCXP6], the “Designation and FPRL1 Activity” value with FPRL1 is reported as “High activity”.
Turning to “CCL5/RANTES: traditional CCR1 ligand chemokine”, the calcium mobilization entry in the assay on human neutrophils (setting [3]) is “not”. Further, the EC50 in the assay with THP-1 cells (2 hr, recombinant undigested chemokine, read-out: EC50, chemotaxis) worked out at 0.5 nM.
As for WRRKIG [CCXP10], the “Designation and FPRL1 Activity” value with FPRL1 was “Low activity”.

B1: CCL3/MIP-1α: traditional CCR1 ligand chemokine; unlabelled homologous competitor in binding (protein)
chain: ADTPTACCFSYTSRQIPQNFIADYFETSSQCSKPGVIFLTKRSRQVCADPSEEWVQKYVSDLELSA
Consider B1, for which the calcium mobilization result in the assay on human neutrophils (setting [3]) was “not and only moderate calcium responses”.

B2: CCL15/MIP-1δ: recombinant full-length human chemokine CCL15 (92aa) (protein, listed as Homo sapiens)
chain: QFINDAETELMMSKLPLENPVVLNSFHFAADCCTSYISQSIPCSLMKSYFETSSECSKPGVIFLTKKGRQVCAKPSGPGVQDCMKKLKPYSI
B2: the calcium mobilization entry in the assay on human neutrophils (digestions at 30-50 nM) is “induced calcium mobilization”; with CCR1 [1] (setting [6]), “greater amount of calcium”; with CCR1 [1] (setting [7]), “little calcium mobilization”. Also, in the assay with THP-1 cells (THP-1 cell migration, cleavage by chymase or synovial fluid), the “fold increase in chemokine potency after cleavage” value is “approximately 1000 fold”. For the same molecule, the EC50 was 0.05 to 0.06 nM in the assay with THP-1 cells (after cleavage by chymase or synovial fluid, read-out: EC50, cell migration); 0.25 nM in the assay on THP-1 cells (setting [4]); 0.05 nM in the assay with THP-1 cells (setting [5]).

B3: CCL23β: alternatively spliced form of CCL23, 116-residue protein; recombinant, R&D Systems special order (protein, listed as Homo sapiens)
chain: MKVSVAALSCLMLVTALGSQARVTKDAETEFMMSKLPLENPVLLDMLWRRKIGPQMTLSHAAGFHATSADCCISYTPRSIPCSLLESYFETNSECSKPGVIFLTKKGRRFCANPSDKQVQVCMRMLKLDTRIKTRKN
Take B3: the “calcium mobilization in the FPRL1 transfectant” value in the assay with FPRL1 is on record as “unable to induce calcium mobilization”. Besides, the “inhibition of 125I-MIP-1α binding” value with CCR1 [2] is given as “lowest binding activity”. For the same molecule, in the assay on human monocytes, the calcium mobilization entry was “very weak responses”.

B4: CCL23/CKβ8: recombinant full-length human chemokine CCL23 (22-120), 99-residue protein (protein, listed as Homo sapiens)
chain: RVTKDAETEFMMSKLPLENPVLLDRFHATSADCCISYTPRSIPCSLLESYFETNSECSKPGVIFLTKKGRRFCANPSDKQVQVCMRMLKLDTRIKTRKN
Turning to B4, the “inhibition of 125I-MIP-1α binding” value with CCR1 [2] was “moderate competitors”. The calcium mobilization result is given as “strong calcium responses” with human monocytes, “uniformly active” with CCR1 [1] (setting [6]) and “either not active or weakly active” with CCR1 [1] (setting [7]). Moreover, the EC50 with THP-1 cells (setting [4]) was determined as 0.15 nM; in the assay with THP-1 cells (setting [5]), 0.05 nM; with THP-1 cells (chemokine after digestion with synovial fluid, read-out: EC50, chemotaxis), 0.25 nM. For the same molecule, the “fold decrease of EC50 by chymase” value with THP-1 cells (THP-1 chemotaxis) is 50 fold.

B5: CCL15Δ24/LKN-1: recombinant CCL15/MIP-1δ lacking the N-terminal 24 residues (68aa) (protein)
chain: SFHFAADCCTSYISQSIPCSLMKSYFETSSECSKPGVIFLTKKGRQVCAKPSGPGVQDCMKKLKPYSI
Take B5: the calcium mobilization result with human neutrophils (setting [3]) was “respond”; in the assay with human neutrophils (undigested chemokine or peptide (100 nM), listed as CCL15 Δ24/leukotactin), “only moderate calcium responses”; with CCR1 [1] (setting [7]), “substantially greater response”.
